Laboratory results from paper PMC12000434 (2025).

B1: FLAG-NDP52^WT [human] / HA-LC3C [human] (parent complex)
chain 1: MEETIKDPPTSAVLLDHCHFSQVIFNSVEKFYIPGGDVTCHYTFTQHFIPRRKDWIGIFRVGWKTTREYYTFMWVTLPIDLNNKSAKQQEVQFKAYYLPKDDEYYQFCYVDEDGVVRGASIPFQFRPENEEDILVVTTQGEVEEIEQHNKELCKENQELKDSCISLQKQNSDMQAELQKKQEELETLQSINKKLELKVKEQKDYWETELLQLKEQNQKMSSENEKMGIRVDQLQAQLSTQEKEMEKLVQGDQDKTEQLEQLKKENDHLFLSLTEQRKDQKKLEQTVEQMKQNETTAMKKQQELMDENFDLSKRLSENEIICNALQRQKERLEGENDLLKRENSRLLSYMGLDFNSLPYQVPTSDEGGARQNPGLAYGNPYSGIQESSSPSPLSIKKCPICKADDICDHTLEQQQMQPLCFNCPICDKIFPATEKQIFEDHVFCHSL
chain 2: MPPPQKIPSVRPFKQRKSLAIRQEEVAGIRAKFPNKIPVVVERYPRETFLPPLDKTKFLVPQELTMTQFLSIIRSRMVLRATEAFYLLVNNKSLVSMSATMAEIYRDYKDEDGFVYMTYASQETFG

Variants of: B1
Test: co-immunoprecipitation (anti-HA beads), Western blot densitometry; lysates of SH-SY5Y cells; three independent experiments; parent: 100; read off a plot

Row | Variant | percent of parent
1 | chain 1 MEETIKDPPTSAVLLDHCHFSQVIFNSVEKFYIPGGDVTCHYTFTQHFIPRRKDWIGIFRVGWKTTREYYTFMWVTLPIDLNNKSAKQQEVQFKAYYLPKDDEYYQFCYVDEDGVVRGASIPFQFRPENEEDILVVTTQEEVEEIEQHNKELCKENQELKDSCISLQKQNSDMQAELQKKQEELETLQSINKKLELKVKEQKDYWETELLQLKEQNQKMSSENEKMGIRVDQLQAQLSTQEKEMEKLVQGDQDKTEQLEQLKKENDHLFLSLTEQRKDQKKLEQTVEQMKQNETTAMKKQQELMDENFDLSKRLSENEIICNALQRQKERLEGENDLLKRENSRLLSYMGLDFNSLPYQVPTSDEGGARQNPGLAYGNPYSGIQESSSPSPLSIKKCPICKADDICDHTLEQQQMQPLCFNCPICDKIFPATEKQIFEDHVFCHSL [chain 1 G140E] | ~190 % of WT
2 | chain 1 MEETIKDPPTSAVLLDHCHFSQVIFNSVEKFYIPGGDVTCHYTFTQHFIPRRKDWIGIFRVGWKTTREYYTFMWVTLPIDLNNKSAKQQEVQFKAYYLPKDDEYYQFCYVDEDGVVRGASIPFQFRPENEEDILVSTTQGEVEEIEQHNKELCKENQELKDSCISLQKQNSDMQAELQKKQEELETLQSINKKLELKVKEQKDYWETELLQLKEQNQKMSSENEKMGIRVDQLQAQLSTQEKEMEKLVQGDQDKTEQLEQLKKENDHLFLSLTEQRKDQKKLEQTVEQMKQNETTAMKKQQELMDENFDLSKRLSENEIICNALQRQKERLEGENDLLKRENSRLLSYMGLDFNSLPYQVPTSDEGGARQNPGLAYGNPYSGIQESSSPSPLSIKKCPICKADDICDHTLEQQQMQPLCFNCPICDKIFPATEKQIFEDHVFCHSL [chain 1 V136S] | ~53 % of WT
3 | chain 1 MEETIKDPPTSAVLLDHCHFSQVIFNSVEKFYIPGGDVTCHYTFTQHFIPRRKDWIGIFRVGWKTTREYYTFMWVTLPIDLNNKSAKQQEVQFKAYYLPKDDEYYQFCYVDEDGVVRGASIPFQFRPENEEDILVSTTQEEVEEIEQHNKELCKENQELKDSCISLQKQNSDMQAELQKKQEELETLQSINKKLELKVKEQKDYWETELLQLKEQNQKMSSENEKMGIRVDQLQAQLSTQEKEMEKLVQGDQDKTEQLEQLKKENDHLFLSLTEQRKDQKKLEQTVEQMKQNETTAMKKQQELMDENFDLSKRLSENEIICNALQRQKERLEGENDLLKRENSRLLSYMGLDFNSLPYQVPTSDEGGARQNPGLAYGNPYSGIQESSSPSPLSIKKCPICKADDICDHTLEQQQMQPLCFNCPICDKIFPATEKQIFEDHVFCHSL [chain 1 V136S, chain 1 G140E] | ~53 % of WT

Variants of: B1
Test: co-immunoprecipitation, Western blot densitometry; lysates of SH-SY5Y cells; three independent experiments; blot labelled IP:HA(LC3C); parent: 100; read off a plot

Row | Variant | percent of parent
4 | chain 1 MEETIKDPPTSAVLLDHCHFSQVIFNSVEKFYIPGGDVTCHYTFTQHFIPRRKDWIGIFRVGWKTTREYYTFMWVTLPIDLNNKSAKQQEVQFKAYYLPKDDEYYQFCYVDEDGVVRGASIPFQFRPENEEDILVVTTQEEVEEIEQHNKELCKENQELKDSCISLQKQNSDMQAELQKKQEELETLQSINKKLELKVKEQKDYWETELLQLKEQNQKMSSENEKMGIRVDQLQAQLSTQEKEMEKLVQGDQDKTEQLEQLKKENDHLFLSLTEQRKDQKKLEQTVEQMKQNETTAMKKQQELMDENFDLSKRLSENEIICNALQRQKERLEGENDLLKRENSRLLSYMGLDFNSLPYQVPTSDEGGARQNPGLAYGNPYSGIQESSSPSPLSIKKCPICKADDICDHTLEQQQMQPLCFNCPICDKIFPATEKQIFEDHVFCHSL [chain 1 G140E] | ~240 % of WT
5 | chain 1 MEETIKDPPTSAVLLDHCHFSQVIFNSVEKFYIPGGDVTCHYTFTQHFIPRRKDWIGIFRVGWKTTREYYTFMWVTLPIDLNNKSAKQQEVQFKAYYLPKDDEYYQFCYVDEDGVVRGASIPFQFRPENEEDILVVTTQGEVEEIEQHNKELCKENQELKDSCISLQKQNSDMQAELQKKQEELETLQSINKKLELKVKEQKAAAATELLQLKEQNQKMSSENEKMGIRVDQLQAQLSTQEKEMEKLVQGDQDKTEQLEQLKKENDHLFLSLTEQRKDQKKLEQTVEQMKQNETTAMKKQQELMDENFDLSKRLSENEIICNALQRQKERLEGENDLLKRENSRLLSYMGLDFNSLPYQVPTSDEGGARQNPGLAYGNPYSGIQESSSPSPLSIKKCPICKADDICDHTLEQQQMQPLCFNCPICDKIFPATEKQIFEDHVFCHSL [chain 1 D203A, chain 1 Y204A, chain 1 W205A, chain 1 E206A] | ~130 % of WT
6 | chain 1 MEETIKDPPTSAVLLDHCHFSQVIFNSVEKFYIPGGDVTCHYTFTQHFIPRRKDWIGIFRVGWKTTREYYTFMWVTLPIDLNNKSAKQQEVQFKAYYLPKDDEYYQFCYVDEDGVVRGASIPFQFRPENEEDILVVTTQEEVEEIEQHNKELCKENQELKDSCISLQKQNSDMQAELQKKQEELETLQSINKKLELKVKEQKAAAATELLQLKEQNQKMSSENEKMGIRVDQLQAQLSTQEKEMEKLVQGDQDKTEQLEQLKKENDHLFLSLTEQRKDQKKLEQTVEQMKQNETTAMKKQQELMDENFDLSKRLSENEIICNALQRQKERLEGENDLLKRENSRLLSYMGLDFNSLPYQVPTSDEGGARQNPGLAYGNPYSGIQESSSPSPLSIKKCPICKADDICDHTLEQQQMQPLCFNCPICDKIFPATEKQIFEDHVFCHSL [chain 1 G140E, chain 1 D203A, chain 1 Y204A, chain 1 W205A, chain 1 E206A] | ~230 % of WT
